Source: patent US9234036B2, “Modulation of activity of proneurotrophins” (H. Lundbeck A/S, priority 2006, dated 2016)
Entries after “also recorded” stand apart in the source; their conditions may differ. Where no end group is shown, it is not given here.

T1: GST-pro-dom-NGF (Homo sapiens, UniProt P01138, A35V)
T1 construct: previously described GST-NGF-pro-domain fusion protein (Nykjaer et al., Nature 2004)
T1 sequence (P01138 19-121 A35V): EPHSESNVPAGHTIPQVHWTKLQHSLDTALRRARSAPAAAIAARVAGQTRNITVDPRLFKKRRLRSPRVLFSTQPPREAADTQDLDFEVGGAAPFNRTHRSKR

T2: pro-dom-BDNF (Homo sapiens, UniProt P23560)
T2 construct: pro-dom-BDNF (residues Ala^1-Arg^110); made in house; host or cells: E. coli BL21/DE3
T2 sequence (P23560 19-128 limits assumed): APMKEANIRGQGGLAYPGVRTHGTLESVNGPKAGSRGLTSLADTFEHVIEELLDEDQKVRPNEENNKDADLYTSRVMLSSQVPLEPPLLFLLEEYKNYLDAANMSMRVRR

T3: pro-dom-NGF (Homo sapiens, UniProt P01138, A35V)
T3 construct: pro-dom-NGF (residues Glu^1-Arg^102); made in house; host or cells: E. coli BL21/DE3
T3 sequence (P01138 19-121 A35V): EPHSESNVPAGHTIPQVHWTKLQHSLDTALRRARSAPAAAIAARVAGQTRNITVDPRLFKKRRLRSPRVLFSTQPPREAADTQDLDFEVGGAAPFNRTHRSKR

T4: proNGF binding to immobilized Sortilin (Homo sapiens, UniProt Q99523)
T4 construct: 51 fmol/mm^2 purified Sortilin extracellular domain; made in house; host or cells: Sortilin: stably transfected CHO cells; proNGF: E. coli
T4 sequence (Q99523 78-755 limits assumed): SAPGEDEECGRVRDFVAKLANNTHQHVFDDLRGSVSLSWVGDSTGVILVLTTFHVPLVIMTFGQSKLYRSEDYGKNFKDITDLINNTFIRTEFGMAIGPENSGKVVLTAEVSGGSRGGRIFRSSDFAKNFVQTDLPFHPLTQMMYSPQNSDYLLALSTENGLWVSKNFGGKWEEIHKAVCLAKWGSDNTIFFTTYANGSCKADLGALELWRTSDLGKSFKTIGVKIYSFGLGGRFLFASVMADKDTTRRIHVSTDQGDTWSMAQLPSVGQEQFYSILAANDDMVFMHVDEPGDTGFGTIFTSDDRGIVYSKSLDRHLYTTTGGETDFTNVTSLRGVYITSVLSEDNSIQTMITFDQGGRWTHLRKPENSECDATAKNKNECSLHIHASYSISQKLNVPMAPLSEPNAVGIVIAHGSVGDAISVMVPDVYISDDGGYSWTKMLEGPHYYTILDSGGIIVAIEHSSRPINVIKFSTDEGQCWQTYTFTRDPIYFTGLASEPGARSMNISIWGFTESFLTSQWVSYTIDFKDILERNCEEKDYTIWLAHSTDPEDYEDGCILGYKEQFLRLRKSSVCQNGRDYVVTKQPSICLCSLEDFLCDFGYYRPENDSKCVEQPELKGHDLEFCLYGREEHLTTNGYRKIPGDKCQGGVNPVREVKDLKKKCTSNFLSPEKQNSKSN


Assays:
GST-pro-dom-NGF = biological target: T1, GST-pro-dom-NGF; assay: SPR binding of GST-pro-dom-NGF to immobilized sortilin site-directed mutants
Description: Site-directed mutagenesis was performed for all important residues within the peptide sequence as identified by the substitution analysis in the SPOT method, using the pCepPU expression vector for sortilin as template. The thereby generated mutant constructs were used together with HEK293 cells to produce single residue mutants of the his-tagged sortilin luminal domain, to obtain the proteins R163A, F165A, R166A, F170A, K172A, and F174A numbered according to pro-Sortilin as specified in the sequence overview. As a control protein, the mutant R160A located N-terminally to the recognition sequence, was produced in order to have a protein with unaltered affinity for the NGF-prodomain.
After purification by standard Ni^2+-NTA chromatography, each sortilin mutant was immobilized to a similar surface density on Biacore CM5 chips. Binding was tested using concentration series of the previously described GST-NGF-pro-domain fusion protein (Nykjaer et al., Nature 2004), which is able to render a higher response using the SPR system at low concentration. Thus concentration series of 10, 20, 30, 40, and 50 nM GST-prodomain of NGF was applied to each chip surface, and data was fitted to a 1:1 binding model using the standard BIAevaluation software.
This model is further supported by the previous data in the substitution analysis, where a stronger effect upon mutation was observed when using peptides containing only one of the binding motives, as compared to mutants spanning both motives. Accordingly, it was decided to “remove” an entire motif before substitution within the second motif and to be able to observe how that would influence binding of the ligand. A sortilin variant was produced containing quadruple substitutions (R163A, F165A, R166A, and […] F170A) in a similar procedure using HEK293 cells as applied for single residue mutants.
To determine ligand binding capacity, quatro protein was coupled in parallel to the wild-type sortilin on a new Biacore chip, and binding of GST-pro-NGF was measured in a manner similar to the analysis of single residue mutants (FIG. 21).

pro-dom-BDNF = biological target: T2, pro-dom-BDNF; assay: SPOT analysis of pro-dom-BDNF binding to cellulose-bound sortilin peptides; details: HRP-S-protein detection where stated
From the text: (§1) Peptide libraries were generated for all members of the Vps10p-domain receptor gene family or specific peptide variations in terms of substitution or length of identified Sortilin binding peptides. A total of 2181 peptides was used for representation of the Sortilin gene family, corresponding to 273 peptides for Sortilin (accession code: CAA66904), 734 peptides for SorLA (accession code: NP_003096), 389 peptides for SorCS1 (accession code: NP_001013049), 382 peptides for sorCS2 (accession code: Q96PQ0), and 403 peptides for SorCS3 (accession code: CAI64579), with a 13 amino acid overlap between 16-mers.
(§2) A cellulose support is prepared as a N-modified cellulose-amino-hydroxylpropyl ether membrane, and all rounds of synthesis starts with SPOT definition by 9-fluorenyl-methoxycarbonyl-β-alanine-pentafluoophenyl ester that creates an alanine linker between peptide and membrane. Then followed an automated linear synthesis of stepwise addition of the different amino acids protected at their amino terminal by 9-fluorenyl-methoxycarbonyl and appropriate side chain protection for the growing peptide chain. The pattern of deprotection, activation, and coupling continued until 16-mer peptides were produced, resulting in an equally distributed array of covalently anchored peptides to the cellulose support at their C-terminal and an N-terminal free end.
(§3) The membrane-bound libraries were incubated with a combined S-peptide and poly-histidine-tagged pro-domains (10 ug/mL) in blocking buffer over night at 4 C, followed by a second incubation with 1 ug/mL of HRP-conjugated S-protein from Novagen (cat. no. 69047-3) also in blocking buffer but for 3 h at room temperature. Subsequently, the membrane was washed three times for 10 min with TBS before quantitative characterization of bound ligand was carried out using the UptiLight chemoluminescence substrate from Uptima (cat. no. UP99619A) and the Lumilmager instrument from Roche Diagnostics, providing the SPOT signal intensities in Boehringer Light Units (BLUs). […]

pro-dom-NGF = biological target: T3, pro-dom-NGF; assay: SPOT analysis of pro-dom-NGF binding to cellulose-bound sortilin peptides; details: HRP-S-protein detection where stated
From the text: as §1, §2, §3

[1] = biological target: T4, proNGF binding to immobilized Sortilin; assay: Inhibition of proNGF binding to immobilized Sortilin (Biacore); details: then coinjection, 51 fmol/mm^2 Sortilin (FIG. 6)
[2] = GST-pro-dom-NGF at 10-50 nM, 1:1 binding model

Molecule	Kd (GST-pro-dom-NGF; [2]) [nM]	ka (GST-pro-dom-NGF; [2])	kd (GST-pro-dom-NGF; [2])	other results
F165A: single residue mutant of his-tagged sortilin luminal domain; SEQ ID NO 52 (RGGRIARSSDFAKNF; not fully specified)	3.86	1.10 × 10^5	4.22 × 10^−4	–
F170A: single residue mutant of his-tagged sortilin luminal domain; SEQ ID NO 54 (RGGRIFRSSDAAKNF; not fully specified)	5.59	1.30 × 10^5	5.91 × 10^−4	–
F174A: single residue mutant of his-tagged sortilin luminal domain; SEQ ID NO 56 (RGGRIFRSSDFAKNA; not fully specified)	4.27	2.35 × 10^5	1.03 × 10^−3	–
FAKNFVQTD (listed as Homo Sapiens)	–	–	–	pro-dom-BDNF binding in SPOT analysis (pro-dom-BDNF): efficient binding; pro-dom-NGF binding in SPOT analysis (pro-dom-NGF): efficient binding
K172A: single residue mutant of his-tagged sortilin luminal domain; SEQ ID NO 55 (RGGRIFRSSDFAANF; not fully specified)	3.91	1.01 × 10^5	3.46 × 10^−4	–
R160A: single residue mutant of his-tagged sortilin luminal domain, control; SEQ ID NO 50 (AGGRIFRSSDFAKNF; not fully specified)	1.89	1.47 × 10^5	2.27 × 10^−4	–
R163A: single residue mutant of his-tagged sortilin luminal domain; SEQ ID NO 51 (RGGAIFRSSDFAKNF; not fully specified)	2.7	1.85 × 10^5	4.21 × 10^−4	–
R166A: single residue mutant of his-tagged sortilin luminal domain; SEQ ID NO 53 (RGGRIFASSDFAKNF; not fully specified)	4.38	6.48 × 10^4	2.85 × 10^−4	–
RIFR: 4-mer sortilin peptide, SEQ ID NO:25 residues 7-10 (listed as Homo Sapiens)	–	–	–	pro-dom-BDNF binding in SPOT analysis (pro-dom-BDNF): binds very strongly; pro-dom-NGF binding in SPOT analysis (pro-dom-NGF): binds very strongly
RIFRSSDF (listed as Homo Sapiens)	–	–	–	pro-dom-BDNF binding in SPOT analysis (pro-dom-BDNF): efficient binding; pro-dom-NGF binding in SPOT analysis (pro-dom-NGF): efficient binding
Sortilin propeptide: propeptide of the Sortilin receptor (QDRLDAPPPPAAPLPRWSGPIGVSWGLRAAAAGGAFPRGGRWRR)	–	–	–	inhibition of binding of 200 nM proNGF to immobilized Sortilin ([1]; 5 μM inhibitor prebound): ~65%
quatro: sortilin variant with quadruple substitutions R163A, F165A, R166A, F170A; SEQ ID NO 57 (RGGAIAASSDAAKNF; not fully specified)	–	–	–	binding of GST-pro-dom-NGF compared with sortilin wt (GST-pro-dom-NGF; 50 nM GST-pro-dom-NGF, FIG. 22): severely affected; also recorded: strongly reduced affinity; KD (GST-pro-dom-NGF; [2]): no binding
RAP: receptor-associated protein, SEQ ID NO 12 (protein, listed as Homo Sapiens) MAPRRVRSFLRGLPALLLLLLFLGPWPAASHGGKYSREKNQPKPSPKRESGEEFRMEKLNQLWEKAQRLHLPPVRLAELHADLKIQERDELAWKKLKLDGLDEDGEKEARLIRNLNVILAKYGLDGKKDARQVTSNSLSGTQEDGLDDPRLEKLWHKAKTSGKFSGEELDKLWREFLHHKEKVHEYNVLLETLSRTEEIHENVISPSDLSDIKGSVLHSRHTELKEKLRSINQGLDRLRRVSHQGYSTEAEFEEPRVIDLWDLAQSANLTDKELEAFREELKHFEAKIEKHNHYQKQLEIAHEKLRHAESVGDGERVSRSREKHALLEGRTKELGYTVKKHLQDLSGRISRARHNEL	–	–	–	inhibition of binding of 200 nM proNGF to immobilized Sortilin ([1]; 10 μM inhibitor prebound): ~65%
